Key:
[1] = biological target: purified bone alkaline phosphatase from calf intestinal mucosa (AP; Santa Cruz sc-3716 - CAS9001-78-9) (calf) (UniProt P19111); assay: capture ELISA, coated antibody, AP calibrator at 3.125 ng/ml, bound enzyme read with pNPP
[2] = biological target: purified bone alkaline phosphatase from calf intestinal mucosa (AP; Santa Cruz sc-3716 - CAS9001-78-9) (calf) (UniProt P19111); assay: capture ELISA, coated antibody, AP calibrator at 50 ng/ml, bound enzyme read with pNPP
[3] = biological target: purified bone alkaline phosphatase from calf intestinal mucosa (AP; Santa Cruz sc-3716 - CAS9001-78-9) (calf) (UniProt P19111); assay: capture ELISA, coated antibody, AP calibrator at 100 ng/ml, bound enzyme read with pNPP
[4] = biological target: purified bone alkaline phosphatase from calf intestinal mucosa (AP; Santa Cruz sc-3716 - CAS9001-78-9) (calf) (UniProt P19111); assay: capture ELISA, coated antibody, AP calibrator at 6.25 ng/ml, bound enzyme read with pNPP
[5] = biological target: purified bone alkaline phosphatase from calf intestinal mucosa (AP; Santa Cruz sc-3716 - CAS9001-78-9) (calf) (UniProt P19111); assay: capture ELISA, coated antibody, AP calibrator at 25 ng/ml, bound enzyme read with pNPP
[6] = biological target: purified bone alkaline phosphatase from calf intestinal mucosa (AP; Santa Cruz sc-3716 - CAS9001-78-9) (calf) (UniProt P19111); assay: capture ELISA, coated antibody, AP calibrator at 12.5 ng/ml, bound enzyme read with pNPP

Sequence of UniProt P19111 (P19111 20-506): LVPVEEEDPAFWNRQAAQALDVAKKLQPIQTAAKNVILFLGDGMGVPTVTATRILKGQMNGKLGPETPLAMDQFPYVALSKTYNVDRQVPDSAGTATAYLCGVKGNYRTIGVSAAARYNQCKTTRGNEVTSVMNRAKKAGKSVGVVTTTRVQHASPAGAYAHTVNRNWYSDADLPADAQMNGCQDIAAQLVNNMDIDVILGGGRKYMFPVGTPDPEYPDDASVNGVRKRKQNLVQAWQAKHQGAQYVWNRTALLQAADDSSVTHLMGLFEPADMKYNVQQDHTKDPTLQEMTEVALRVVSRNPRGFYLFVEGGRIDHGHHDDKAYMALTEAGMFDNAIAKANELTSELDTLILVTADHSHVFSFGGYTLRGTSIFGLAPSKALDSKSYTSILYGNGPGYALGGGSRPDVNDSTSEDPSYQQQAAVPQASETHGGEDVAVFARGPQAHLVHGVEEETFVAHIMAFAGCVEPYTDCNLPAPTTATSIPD

For “anti-BAP polyclonal IgG antibody (produced in sheep) specific for bone alkaline phosphatase (Abcam Ab68716)”, the Abs. 415 nm, Abs. (1) [1] was 0.054 Abs. 415 nm, the Abs. 415 nm, Abs. (2) [1] was 0.05 Abs. 415 nm and the Abs. 415 nm, Abs. (3) [1] was 0.066 Abs. 415 nm. It also gave a Mean Abs. 415 nm [1] of 0.057 Abs. 415 nm, an Abs. 415 nm, Abs. (1) [2] of 0.628 Abs. 415 nm and an Abs. 415 nm, Abs. (2) [2] of 0.501 Abs. 415 nm. The Abs. 415 nm, Abs. (3) [2] was 0.476 Abs. 415 nm, the Mean Abs. 415 nm [2] was 0.535 Abs. 415 nm and the Abs. 415 nm, Abs. (1) [3] was 1.09 Abs. 415 nm. It also gave an Abs. 415 nm, Abs. (2) [3] of 1.03 Abs. 415 nm, an Abs. 415 nm, Abs. (3) [3] of 1.12 Abs. 415 nm and a Mean Abs. 415 nm [3] of 1.08 Abs. 415 nm. For the same substance, the Abs. 415 nm, Abs. (1) [4] was 0.11 Abs. 415 nm, the Abs. 415 nm, Abs. (2) [4] was 0.098 Abs. 415 nm and the Abs. 415 nm, Abs. (3) [4] was 0.089 Abs. 415 nm. The Mean Abs. 415 nm [4] was 0.099 Abs. 415 nm, the Abs. 415 nm, Abs. (1) [5] was 0.345 Abs. 415 nm and the Abs. 415 nm, Abs. (2) [5] was 0.272 Abs. 415 nm. The Abs. 415 nm, Abs. (3) [5] was 0.294 Abs. 415 nm, the Mean Abs. 415 nm [5] was 0.304 Abs. 415 nm and the Abs. 415 nm, Abs. (1) [6] was 0.186 Abs. 415 nm. For the same substance, the Abs. 415 nm, Abs. (2) [6] was 0.156 Abs. 415 nm, the Abs. 415 nm, Abs. (3) [6] was 0.161 Abs. 415 nm and the Mean Abs. 415 nm [6] was 0.168 Abs. 415 nm.
